In paper PMC2928814, “Host Imprints on Bacterial Genomes—Rapid, Divergent Evolution in Individual Patients”:

Biological target: T1, Fur (ferric uptake regulator) (Escherichia coli (strain of the fur …, UniProt P0A9A9 1-148))
T1 sequence: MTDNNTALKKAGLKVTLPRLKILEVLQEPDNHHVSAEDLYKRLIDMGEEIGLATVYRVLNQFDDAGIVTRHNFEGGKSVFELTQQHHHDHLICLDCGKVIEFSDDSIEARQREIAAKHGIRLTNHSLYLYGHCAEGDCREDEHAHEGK
Test: EMSA; dimer and tetramer complexes; EMSA as in cited ref 52, binding buffer not given; annealing buffer 10 mM Tris-HCl, 50 mM NaCl, 1 mM EDTA
Conditions: protein: recombinant; tags: IMPACT system (intein tag, self-cleaved; no residual tag stated); chain copies: 4; label: Cy3 at 3' end of S3 as printed; blunt

B1: fecIR Fur box, E. coli 83972 (dsDNA)
DNA 1: TCCAATTGTAATGATAACCATTCTCATATTAATATGACTACGTGA
DNA 2: TCACGTAGTCATATTAATATGAGAATGGTTATCATTACAATTGGA
  binding result: binds
